According to PMC6396981:

Target: MTs coated with His-mCherry-SEPT9 (10 nM) (bovine (methods) or porcine (Key Resources Table) | human) (UniProt P02550)
Experiment: single-molecule TIRF motility assay

KIF5C(1–560)-L12_(KIF1A)-mCit (from UniProt P56536 1-560) (domain or fragment)
fold landing rate against SEPT9-free MTs: 2 fold
